# Reference: the nanobody polyreactivity screen of Harvey et al. (2022)
# Assay: yeast display, Sf9 membrane polyspecificity reagent, FACS + sequencing; frameworks hold sequencing errors
# Procedure, shortened: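 Polyreactivity labels are assigned by the sorting gate from which each nanobody was recovered. The gates were low and high (top ~1%), set on anti-HA fluorescence for expression and streptavidin fluorescence for reagent binding. Before sorting, galactose-induced (36–48 hours) yeast display cells were stained for 1 hour at 4 °C with 10% biotinylated, detergent-solubilized Sf9 membrane reagent.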
row,Sequence,polyreactivity (PSR sort gate)
1,QVQIVESGGGLVQAGGSLRVSCAASGSIYTYNGMGWYRQAPWKERELDAAISASGGRTYYADSVKGRYTISRDNAKNTVYLQMNRLKPEDNAVYYCAARILVSGLSRFDYWGQGTQVTVSA,high polyreactivity
2,QVQIVESGGGLVQAGGSLSLICAASGYIFGNYAMGWYRQAPGKESELVADITWRGDSTYADSVKGRFTISRDNSKNTVYLQMNSLKPEDTAVYYCAADIATEYWYTGYDHWGQGTQVTVSS,low polyreactivity
3,QVQIVESGGGLVQAGRSLRLSCAASGLIFRAYAMGWYRQAPGKDRELVAAITRSGGRTYYADSVKGRFTISRDNAKNTVYLQMNTLKPVDTAVYYSAAEYGNTYSSYTYDYWGQGTQVNVSS,high polyreactivity
4,QVQIVESGGGLVQAGVSLRLSCAASGSIYYEYTMGWYRQAPGKERELVAVITSCGTTNYADSVKGRFTISRDNAKNTVFLQMNSLKPEDTAVYYCAAKRRTGGNGYWGQGTQVTVSS,high polyreactivity
5,QVQIVESGGGLVQARGSLRLSCAASGFIFGSYASGWYRQAPGKERELVAAISWNGDSTYYADSVKGRFTISRDNAKITVYLQMNSLKPEDTAVYYCNAVDVFLYQTDGLGDYWGQGTQVTVSS,low polyreactivity
6,QVQIVESGGVLVQAGGSLRLSCAASGLTFVQYDMGWYRHAPGKERELVADISGSAGDTYYADSVKGRFTISRDNAKKTVYLQMNSLKPEDTAVYYCNAYGAEYLQYGWRDYWGQGTQLTVSS,low polyreactivity
7,QVQIVESGRGLVQAGGSLRLSCAASGSIFHPKAMGWYRQAPGKERELVAAITSGGGSTYYADSVKVRYTISRDNAKNTVYLQMNSLKPEDTAVYYCNKVFVLPYKFVAWFDYWGQGTQVTVSS,low polyreactivity
8,QVQIVESVGRLVQAGCSLRLSCDASGRIFGTNAKGWYSQAPGKDRELFAAINGSDSSTYYADSVKGRFTISRDNAKNSDYLQMNSLKPEDNAVYYCNADWSRAPERSTYGYDYWGHGTQVTVSS,low polyreactivity
9,QVQIVETGGGLVQAGGSLRISCAASGSTLIRNVMGWYRQAPGKERELVAAINTRGTTTYYADSVKGRFTISRDNAKNTVYLQMNSLKPEDTAVYYCAAYAYSAYSPDGQRSRYYYWGLGTQVTVSS,high polyreactivity
10,QVQIVETGGGLVQAGGSLRLSCAASGRIFFRNPMGWYRPAPRKEREFVAAINWSGGSTYYADSVKGRFTISRDNAKNTVYLQMNSLKPEDTAVYYCAARGSRGGRRGATASMDYWGQGTQVTVSS,high polyreactivity
11,QVQLAESGGGLVQAGGSLRLSCAASGGTIGVNAMGWYRQAPGKERELVARISRIGASTHYADSVKGRFTISRDNAKNTVYLMMNSLKPEDTAVYYCAKSNGTPGNFGYWGQGTQVTVSS,low polyreactivity
12,QVQLAESGGGLVQAGVSLRISCAASGSTFSVYAMGWYRQAPGKERELVATIRRGGSTYADSVKGRFTISRDNAKITVYLQMNRLKPEDTAVYYCASDAYVSYQPMDYWGQGTQVTVSS,high polyreactivity
13,QVQLEDSGGGLVQAGARLRLSCAASGSTFAQNAMGRYRQAPGKERELVAAITYSGGSTYYADSVKGRFSISRDNAKNTVYLQMNSLKPEDTAVYYCAADVWWSYYRYDYWGQATQVTVSS,low polyreactivity
14,QVQLEDSGGGLVQAGGRLRLSCAASGYIFSDYAMGWYRQAPGKERELVADIRARGGSTYYADSVKGRFTISRDKAQNTVYLQMNSLKPEDTAVYYCNVEDPFYSGVVEFDYWGQGTQVTVSS,low polyreactivity
15,QVQLEDSGGGLVQAGGRLRLTCAASGSIFSLNAMGWSRKAPGKERELVAAINSGGTTNYADSVKGRFTISRDNAKNTVYLQMNSLKPEDSAVYYCATDGYYYYYRVYKFDYWGLGTQVTVSS,low polyreactivity
16,QVQLEDSGGGLVQAGGSLRLSCAASGITVFYYAMGWSRQAPGKERELVATMSWGGDSTYSADSVKGRFTISRDNAKNTVYLQMNSLKPEDTAVYYCAARYWFFRFWYDYWGQGTQVTVSS,high polyreactivity
17,QVQLEDSGGGLVQAGGSLRLSCAASGSTFPLNAMGWYRQAPGKERELVASINFGGGTTYYADSVKGRFTISRDNAMNTVYLQMNSLKPEDTAVYYCAADVYQEFGYWGQGTQVTVSS,high polyreactivity
18,QVQLEDSGGGLVQAGGSLRLTCAASGRIFYPNVIGRNRQAPGKERELVAAIRTSGTGTYYADSVKGRFTISRDNAMNNVYLQMNSQKTQDTAGYYCAADYGYNRYWWWDWSYEYGYEYWGQGTQVTVSS,high polyreactivity
19,QVQLEEKRRGLVQAGGSLRLSCASSGRTFVTNAMGRYRQAPGKERELVAAISSSGGSTYYADSVKGRFTISRDNAMNTVYLQMNSLKPEDTAVYYCAVAGQTKGQYDYWGQGTQVTVSS,low polyreactivity
20,QVQLEESAGGLVQAGGSLRLSCAASGRIFTGSNVMVWYRQSPGKETEFVAVINSGGGSTYYADSVKGRFTISRDNAKNTVFLQMNSLKPEDTAVYYCAADVGGWGYYYWGQGTQVTVSS,low polyreactivity
21,QVQLEESAGGLVQAGGSLRLSCAASGSIFRVYGMGWYRQAPGKVTELVASITYRGGNTYYADSVKGRFTISRDNAKNTVYVQMNSLKPEDTAVFDCARSGYQKVGGFRSDYWGQGTEVTVSS,low polyreactivity
22,QVQLEESCGGLVQAGGSLRLSCAASGSIFGTYAMGLYRHAPGKEREFVADISGIGTSTYYADSVKGRFTISRDNAKNTVYLQMNSLKPEDTAVYYCAAESFDTVEYDYWGQGTQVTVSS,low polyreactivity
23,QVQLEESGAGLVQARGSLRLSCAASGRTFIWNAMGWYRQAPGKERELVAAISSRGGRTYYADSVKGRFTISRDNAKNTVYLQMNILKPEDTAVYYCAAYYITFIGRGYGYWGQGTQVTVSS,high polyreactivity
24,QVQLEESGGALFQAGGSIRLSCAASGYTFDAYAMGWYRQAPGKERELVADINYSVGSTTYADSVKGRFTISRDNAKNTVYLQMNSLKTEDTAVYYCAAQGTWYAWDYDYWGQGTQVTVSS,low polyreactivity
25,QVQLEESGGGIVQAGGSLRLSCAASGGIFGTYAMGWYRQAPRKERELVASISSDTSTTYADSVKGRFTISRDNAKNTVYLQMNSLKAEDTAVYYCAAGSDYDDDYWGQGTQVTVSS,high polyreactivity
26,QVQLEESGGGIVQAGGSLRLSCAASGRTCSNYAMGWNRQAPGKERQLVASIRSSGTSTYYADSVKGRFTISRDIAKNTVYLKMNSLKPEDTAVYYCAKRYFTWSSTYNYWGQGTQVTVSS,high polyreactivity
27,QVQLEESGGGIVQAGGSLRLSCAASGSTFNYYAMGWYRQAPGKERELVAAINSNGGSTYYADSVKGRFTISRDNAKNTVYLQMNSPKPEDTAVYLCAADISPYDYDYWGQGTQVTVSS,high polyreactivity
28,QVQLEESGGGIVQAGGSLRLSCAASGSTFVLNAMGWYRKAPGKERELVAAITRDGRTYYADSVKGRFTISRDNAKNTVYLQMNSLKPEDTAVYYCARPARYSYGDGYWGQGTLVTVSS,low polyreactivity
29,QVQLEESGGGIVQAGGSLRLSCASSGFIFKAYAMVWSRQAPGKERDLVAVITGSSGRTYADSVKGRFTISRDNAKNTVYLQMNSLKPEDTAVYYCAADLRKSKYRYWRRYDYWGQGTQVTVSS,high polyreactivity
30,QVQLEESGGGIVQAGGTLRLTCAASGRIYATNAMGWSRQAPGKERELVATITRSAGRTYYADSVKGRFTISGDNAKNTVYLQMNSLKPEDTAVYYCAASYWDTEPGYREYDYWGQGTEVTVSS,low polyreactivity
